Assay [1] deals with T1, GST-ULK1 279–525 (from bacteria) (UniProt O75385 279-525).
T1 construct: in the vector pGEX-4t-2; source: E. coli BL21 codon plus, purified
T1 sequence (looked up): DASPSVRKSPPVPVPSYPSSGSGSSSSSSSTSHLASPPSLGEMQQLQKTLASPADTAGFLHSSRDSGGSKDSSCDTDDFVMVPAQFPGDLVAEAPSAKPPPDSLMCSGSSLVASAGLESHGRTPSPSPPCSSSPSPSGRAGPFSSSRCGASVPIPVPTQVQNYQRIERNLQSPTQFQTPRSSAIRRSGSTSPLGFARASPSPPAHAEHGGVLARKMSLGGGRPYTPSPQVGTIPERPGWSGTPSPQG
The assay is described as follows: pull-down; GST-ULK1 279–525 and His-STX17 157–275 purified from bacteria, incubated in IP lysis buffer with glutathione beads for 4 h at 4 °C; western blot with His antibody. As to conditions: both partners purified. On the technique in general: In western blotting, separated proteins are transferred to a membrane and probed.

The target of another assay is T2, GFP-STX17, P56962.
T2 chain: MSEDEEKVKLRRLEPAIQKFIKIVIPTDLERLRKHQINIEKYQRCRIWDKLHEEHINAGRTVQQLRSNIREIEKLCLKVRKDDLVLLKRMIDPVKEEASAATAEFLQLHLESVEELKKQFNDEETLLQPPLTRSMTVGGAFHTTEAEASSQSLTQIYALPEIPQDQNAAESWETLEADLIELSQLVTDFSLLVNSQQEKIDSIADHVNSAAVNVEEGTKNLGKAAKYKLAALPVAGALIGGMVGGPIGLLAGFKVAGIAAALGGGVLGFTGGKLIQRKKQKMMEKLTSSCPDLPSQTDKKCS
The assay is described as follows: proximity ligation; GFP-STX17 co-transfected with Myc-ULK1 variants or Myc vector into HeLa; anti-Myc and anti-GFP antibodies; with or without serum starvation. The note with it: remark: other sources report otherwise.

Our source for the binding result and fold increase of the PLA signal with serum starvation over no starvation values is publication PMC6113293, “Phosphorylation of ULK1 affects autophagosome fusion and links chaperone-mediated autophagy to macroautophagy” (Nature Communications, 2018).

B1: His-STX17 157–275 (domain or fragment, UniProt P56962 157-275, looked up)
chain: YALPEIPQDQNAAESWETLEADLIELSQLVTDFSLLVNSQQEKIDSIADHVNSAAVNVEEGTKNLGKAAKYKLAALPVAGALIGGMVGGPIGLLAGFKVAGIAAALGGGVLGFTGGKLI
notes: in the vector pET-26b(+); source: E. coli BL21 codon plus, purified; not shown: His6, C-terminal, kept
As to B1, the binding result in assay [1] is reported as “binds”.

B2: Myc-ULK1 WT, O75385 1-1050 (enzyme)
chain: MEPGRGGTETVGKFEFSRKDLIGHGAFAVVFKGRHREKHDLEVAVKCINKKNLAKSQTLLGKEIKILKELKHENIVALYDFQEMANSVYLVMEYCNGGDLADYLHAMRTLSEDTIRLFLQQIAGAMRLLHSKGIIHRDLKPQNILLSNPAGRRANPNSIRVKIADFGFARYLQSNMMAATLCGSPMYMAPEVIMSQHYDGKADLWSIGTIVYQCLTGKAPFQASSPQDLRLFYEKNKTLVPTIPRETSAPLRQLLLALLQRNHKDRMDFDEFFHHPFLDASPSVRKSPPVPVPSYPSSGSGSSSSSSSTSHLASPPSLGEMQQLQKTLASPADTAGFLHSSRDSGGSKDSSCDTDDFVMVPAQFPGDLVAEAPSAKPPPDSLMCSGSSLVASAGLESHGRTPSPSPPCSSSPSPSGRAGPFSSSRCGASVPIPVPTQVQNYQRIERNLQSPTQFQTPRSSAIRRSGSTSPLGFARASPSPPAHAEHGGVLARKMSLGGGRPYTPSPQVGTIPERPGWSGTPSPQGAEMRGGRSPRPGSSAPEHSPRTSGLGCRLHSAPNLSDLHVVRPKLPKPPTDPLGAVFSPPQASPPQPSHGLQSCRNLRGSPKLPDFLQRNPLPPILGSPTKAVPSFDFPKTPSSQNLLALLARQGVVMTPPRNRTLPDLSEVGPFHGQPLGPGLRPGEDPKGPFGRSFSTSRLTDLLLKAAFGTQAPDPGSTESLQEKPMEIAPSAGFGGSLHPGARAGGTSSPSPVVFTVGSPPSGSTPPQGPRTRMFSAGPTGSASSSARHLVPGPCSEAPAPELPAPGHGCSFADPITANLEGAVTFEAPDLPEETLMEQEHTEILRGLRFTLLFVQHVLEIAALKGSASEAAGGPEYQLQESVVADQISLLSREWGFAEQLVLYLKVAELLSSGLQSAIDQIRAGKLCLSSTVKQVVRRLNELYKASVVSCQGLSLRLQRFFLDKQRLLDRIHSITAERLIFSHAVQMVQSAALDEMFQHREGCVPRYHKALLLLEGLQHMLSDQADIENVTKCKLCIERRLSALLTGICA
Take B2: in the assay with GFP-STX17, P56962, the fold increase of the PLA signal with serum starvation over no starvation worked out at 2.5 fold.
